Source: article PMC7910549

Target: GFP-tagged CSB (UniProt Q03468)
Test: affinity purification with mass spectrometry; label-free quantification and iBAQ; GFP-CSB pulled down with GFP Trap beads from U2OS CSB-KO cells; untreated against 20 J/m^2 UV-C with 1 h recovery

Chain of UniProt Q03468 (Q03468 whole entry): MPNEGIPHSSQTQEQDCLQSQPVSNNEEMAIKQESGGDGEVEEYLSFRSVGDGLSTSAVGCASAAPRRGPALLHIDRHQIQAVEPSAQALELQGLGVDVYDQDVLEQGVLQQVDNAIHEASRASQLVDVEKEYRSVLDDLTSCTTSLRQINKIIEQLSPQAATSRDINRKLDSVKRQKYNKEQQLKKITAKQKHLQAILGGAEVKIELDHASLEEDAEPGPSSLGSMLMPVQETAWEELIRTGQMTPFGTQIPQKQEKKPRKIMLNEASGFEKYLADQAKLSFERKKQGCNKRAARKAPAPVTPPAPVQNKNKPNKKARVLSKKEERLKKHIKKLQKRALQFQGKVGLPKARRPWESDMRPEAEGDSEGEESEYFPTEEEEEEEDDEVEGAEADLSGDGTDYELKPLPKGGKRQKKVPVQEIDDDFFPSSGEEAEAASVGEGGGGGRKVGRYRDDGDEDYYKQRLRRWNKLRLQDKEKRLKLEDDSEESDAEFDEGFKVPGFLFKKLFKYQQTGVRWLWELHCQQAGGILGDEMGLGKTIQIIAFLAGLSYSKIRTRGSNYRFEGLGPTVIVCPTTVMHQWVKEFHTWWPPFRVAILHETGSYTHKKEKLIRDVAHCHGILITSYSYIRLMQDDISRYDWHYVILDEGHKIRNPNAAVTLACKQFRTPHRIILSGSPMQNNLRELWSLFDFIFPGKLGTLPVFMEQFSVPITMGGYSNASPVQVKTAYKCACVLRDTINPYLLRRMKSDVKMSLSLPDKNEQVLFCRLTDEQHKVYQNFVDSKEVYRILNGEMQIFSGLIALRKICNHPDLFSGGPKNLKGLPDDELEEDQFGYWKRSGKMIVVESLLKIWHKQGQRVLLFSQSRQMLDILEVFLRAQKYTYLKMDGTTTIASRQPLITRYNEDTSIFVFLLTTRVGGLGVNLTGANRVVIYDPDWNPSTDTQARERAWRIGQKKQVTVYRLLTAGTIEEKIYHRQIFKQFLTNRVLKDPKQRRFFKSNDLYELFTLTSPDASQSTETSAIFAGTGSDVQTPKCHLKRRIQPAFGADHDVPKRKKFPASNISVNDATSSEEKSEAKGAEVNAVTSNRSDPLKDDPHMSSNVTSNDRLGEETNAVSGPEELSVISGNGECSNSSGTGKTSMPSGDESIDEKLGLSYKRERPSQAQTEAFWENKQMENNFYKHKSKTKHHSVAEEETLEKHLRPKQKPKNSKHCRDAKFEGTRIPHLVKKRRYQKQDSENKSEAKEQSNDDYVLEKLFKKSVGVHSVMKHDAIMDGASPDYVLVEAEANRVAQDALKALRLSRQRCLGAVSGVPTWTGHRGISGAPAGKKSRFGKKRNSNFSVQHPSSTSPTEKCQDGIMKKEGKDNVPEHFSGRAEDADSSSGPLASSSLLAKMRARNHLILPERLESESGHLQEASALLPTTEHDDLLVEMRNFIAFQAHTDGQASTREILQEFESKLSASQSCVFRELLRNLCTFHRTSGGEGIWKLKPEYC

RNA polymerase II (RNAPII), endogenous (from UniProt P24928 1-1970) (complex)
percent of the isolated CSB molecules associated (iBAQ): > 60%
